{"source": "patent US20040096898A1", "about": "(MCMASTER UNIVERSITY, published 2004)", "binders": {"B1": {"name": "phage displaying the 12 amino acid peptide VSNSNWPSFPSS (peptide)", "peptide": "VSNSNWPSFPSS", "modifications": "also: displayed as a fusion on M13KE phage", "notes": "also called phage from 16 and 120 min elutants; consensus clone of the PMCA398 screen; not shown: rest of the M13KE phage display fusion (PhD12 library); not described"}}, "target": "T1, PMCA398 (WVQKRPWLAESTPIYIQYFVKC) (conjugated through the terminus cysteine to keyhole limpet hemocyanin or ovalbumin)", "T1 construct": "Used as the KHLH conjugate (coated), as the free peptide (coated) and as the ovalbumin conjugate (eluting)", "T1 peptide": "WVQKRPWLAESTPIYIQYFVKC", "assay": "phage display panning on coated peptide conjugate", "description": "The peptide fragment from the PMCA protein is preferably from an extracellular domain of the PMCA protein. […] The inventors screened an MEK13 random peptide phage display library (New England Biolabs, USA) and identified a phage that bound to the PMCA398-keyhole limpet hemocyanin conjugate and eluted with the PMCA398-ovalbumin. Specific details on the screening assay are provided in Example 1. A peptide containing the 12 amino add recognition sequence and a spacer ([…]-amide, SEQ.ID.NO.1) was synthesized and subsequently termed caloxin 2A1.\n1.4.4. Screening Procedure for PMCA398: The peptide PMCA398 is extremely hydrophobic. Therefore, it was conjugated at a lower (5:1 molar) ratio to KHLH and ovalbumin. The peptide and its conjugates could be used only at low concentrations as very fine suspensions. […] Therefore, a strategy of sequentially increasing selectivity was used. First three rounds of panning were conducted at low stringency. […] The selected phage were pooled. […] After three high stringency washes, a differential time elution was performed—at each time point replacing the elutant with new PBS. The idea was that the most tightly bound phage would elute last. The elution was at room temperature for 1, 2, 4, 8, 16 and then 120 min. The phage from 16 and 120 min elutants gave excellent results in selectivity assays. […]", "note": "Ends that are not written are not given here.", "data": [{"binder": "B1", "values": [{"measurement": "binding result", "result": "binds"}]}]}
